From IntAct's records for PubMed 15611062

B1: Large T antigen (Simian virus 40), P03070 (parent)
chain: MDKVLNREESLQLMDLLGLERSAWGNIPLMRKAYLKKCKEFHPDKGGDEEKMKKMNTLYKKMEDGVKYAHQPDFGGFWDATEIPTYGTDEWEQWWNAFNEENLFCSEEMPSSDDEATADSQHSTPPKKKRKVEDPKDFPSELLSFLSHAVFSNRTLACFAIYTTKEKAALLYKKIMEKYSVTFISRHNSYNHNILFFLTPHRHRVSAINNYAQKLCTFSFLICKGVNKEYLMYSALTRDPFSVIEESLPGGLKEHDFNPEEAEETKQVSWKLVTEYAMETKCDDVLLLLGMYLEFQYSFEMCLKCIKKEQPSHYKYHEKHYANAAIFADSKNQKTICQQAVDTVLAKKRVDSLQLTREQMLTNRFNDLLDRMDIMFGSTGSADIEEWMAGVAWLHCLLPKMDSVVYDFLKCMVYNIPKKRYWLFKGPIDSGKTTLAAALLELCGGKALNVNLPLDRLNFELGVAIDQFLVVFEDVKGTGGESRDLPSGQGINNLDNLRDYLDGSVKVNLEKKHLNKRTQIFPPGIVTMNEYSVPKTLQARFVKQIDFRPKDYLKHCLERSEFLLEKRIIQSGIALLLMLIWYRPVAEFAQSIQSRIVEWKERLDKEFSLSVYQKMKFNVAMGIGVLDWLRNSDDDDEDSQENADKNEDGGEKNMEDSGHETGIDSQSQGSFQAPQSSQSVHDHNQPYHICRGFTCFKKPPTPPPEPET

Variants of: B1
Conditions: with fbxw7_human FBXW7, Q969H0
Sequence of fbxw7_human FBXW7, Q969H0 (Q969H0 whole entry): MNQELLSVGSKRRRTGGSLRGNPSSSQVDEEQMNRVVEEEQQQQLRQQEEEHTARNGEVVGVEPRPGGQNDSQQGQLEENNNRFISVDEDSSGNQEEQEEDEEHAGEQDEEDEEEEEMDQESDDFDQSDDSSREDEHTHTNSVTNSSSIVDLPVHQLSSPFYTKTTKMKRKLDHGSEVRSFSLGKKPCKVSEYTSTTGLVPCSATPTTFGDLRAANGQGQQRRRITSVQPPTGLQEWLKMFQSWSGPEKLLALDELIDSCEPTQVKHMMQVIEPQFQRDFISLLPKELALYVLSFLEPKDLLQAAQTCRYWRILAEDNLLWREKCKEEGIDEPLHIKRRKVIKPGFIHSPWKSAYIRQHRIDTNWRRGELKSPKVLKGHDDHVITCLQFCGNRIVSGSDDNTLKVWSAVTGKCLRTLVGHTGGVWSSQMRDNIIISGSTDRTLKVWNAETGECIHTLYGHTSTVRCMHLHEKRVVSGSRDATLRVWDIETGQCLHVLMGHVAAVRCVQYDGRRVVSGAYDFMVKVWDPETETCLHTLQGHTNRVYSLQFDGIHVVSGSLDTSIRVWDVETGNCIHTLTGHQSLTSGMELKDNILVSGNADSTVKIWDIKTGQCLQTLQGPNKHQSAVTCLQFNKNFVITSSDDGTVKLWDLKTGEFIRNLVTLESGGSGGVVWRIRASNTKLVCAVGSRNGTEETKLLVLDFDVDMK

| Variant | effect of a mutation on the interaction |
| --- | --- |
| T701A | decreasing interaction |

Variants of: B1
Conditions: with fbw1b_human FBXW11, Q9UKB1
Sequence of fbw1b_human FBXW11, Q9UKB1 (Q9UKB1 whole entry): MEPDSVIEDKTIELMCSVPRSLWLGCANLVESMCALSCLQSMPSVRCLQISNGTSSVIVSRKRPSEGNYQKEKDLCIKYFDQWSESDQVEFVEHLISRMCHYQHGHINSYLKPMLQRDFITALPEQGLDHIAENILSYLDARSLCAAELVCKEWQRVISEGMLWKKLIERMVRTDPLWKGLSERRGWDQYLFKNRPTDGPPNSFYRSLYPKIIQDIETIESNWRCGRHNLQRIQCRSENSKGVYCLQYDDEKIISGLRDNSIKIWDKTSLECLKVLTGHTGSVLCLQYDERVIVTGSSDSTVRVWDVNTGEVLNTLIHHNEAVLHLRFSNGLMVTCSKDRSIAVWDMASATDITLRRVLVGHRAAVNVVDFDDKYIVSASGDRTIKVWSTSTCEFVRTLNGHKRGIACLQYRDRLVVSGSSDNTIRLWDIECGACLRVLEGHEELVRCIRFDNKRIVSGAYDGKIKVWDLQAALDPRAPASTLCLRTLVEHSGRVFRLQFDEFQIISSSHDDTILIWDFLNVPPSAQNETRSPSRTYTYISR

| Variant | effect of a mutation on the interaction |
| --- | --- |
| T701A;E705A | decreasing interaction |

Variants of: B1
Conditions: with fbw1a_human BTRC

| Variant | effect of a mutation on the interaction |
| --- | --- |
| T701A;E705D | decreasing interaction |
